Test results taken from US20200079833A1 (AstraZeneca / MedImmune, published 2020).
Starred links: 1 amine or outer side, 2 acyl side, 3 side chain; linkers in the order of their positions; H or OH if unused. Non-standard residues stand in square brackets, D forms with d. Groups on a side chain read outwards from the residue. Primed or numbered codes have the meaning given here. No end group written: not given here. *: point of attachment. γGlu = O=C(O)[C@H](CCC(=O)[*:2])N[*:1]; Stearoyl = CCCCCCCCCCCCCCCCCC(=O)*; Palmitoyl = CCCCCCCCCCCCCCCC(=O)*; αMeF = C[C@](N)(Cc1ccccc1)C(=O)O; αMeK = C[C@](N)(CCCCN)C(=O)O; αMeS = C[C@](N)(CO)C(=O)O; PEG2′ = not defined here; Aib = CC(C)(N)C(=O)O

T1: GLP-1R (INS1e assay) (UniProt P32301 22-463, limits assumed)
T1 sequence (looked up): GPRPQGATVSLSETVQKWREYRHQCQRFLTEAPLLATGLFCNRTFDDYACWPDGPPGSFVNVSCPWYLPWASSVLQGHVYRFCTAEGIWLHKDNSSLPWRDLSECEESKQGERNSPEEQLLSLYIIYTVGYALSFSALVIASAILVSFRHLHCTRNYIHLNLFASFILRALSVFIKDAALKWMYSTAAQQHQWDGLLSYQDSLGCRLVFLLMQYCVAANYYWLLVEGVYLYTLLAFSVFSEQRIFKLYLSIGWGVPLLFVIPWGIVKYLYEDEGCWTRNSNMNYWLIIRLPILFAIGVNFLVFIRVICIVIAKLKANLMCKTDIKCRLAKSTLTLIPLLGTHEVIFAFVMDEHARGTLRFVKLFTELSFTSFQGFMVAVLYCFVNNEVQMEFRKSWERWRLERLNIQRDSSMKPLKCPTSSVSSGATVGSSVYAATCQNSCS

B1: SEQ ID NO 72 (peptide)
peptide: H[Aib]EGS[αMeF]TSDV[αMeS]S[αMeF]LEGEAA[αMeK]E[αMeF]IA[αMeF]VVK([γGlu-Palmitoyl])GG-NH2
modifications: N-terminus assumed
SMILES: CCCCCCCCCCCCCCCC(=O)N[C@@H](CCC(=O)NCCCC[C@H](NC(=O)[C@@H](NC(=O)[C@@H](NC(=O)[C@](C)(Cc1ccccc1)NC(=O)[C@H](C)NC(=O)[C@@H](NC(=O)[C@](C)(Cc1ccccc1)NC(=O)[C@H](CCC(=O)O)NC(=O)[C@](C)(CCCCN)NC(=O)[C@H](C)NC(=O)[C@H](C)NC(=O)[C@H](CCC(=O)O)NC(=O)CNC(=O)[C@H](CCC(=O)O)NC(=O)[C@H](CC(C)C)NC(=O)[C@](C)(Cc1ccccc1)NC(=O)[C@H](CO)NC(=O)[C@](C)(CO)NC(=O)[C@@H](NC(=O)[C@H](CC(=O)O)NC(=O)[C@H](CO)NC(=O)[C@@H](NC(=O)[C@](C)(Cc1ccccc1)NC(=O)[C@H](CO)NC(=O)CNC(=O)[C@H](CCC(=O)O)NC(=O)C(C)(C)NC(=O)[C@@H](N)Cc1c[nH]cn1)[C@@H](C)O)C(C)C)[C@@H](C)CC)C(C)C)C(C)C)C(=O)NCC(=O)NCC(N)=O)C(=O)O
B2: SEQ ID NO 71 (peptide)
peptide: H[Aib]EGS[αMeF]TSDV[αMeS]S[αMeF]LEGEAA[αMeK]E[αMeF]IA[αMeF]VV[αMeK]K([γGlu-Palmitoyl])G-NH2
modifications: N-terminus assumed
SMILES: CCCCCCCCCCCCCCCC(=O)N[C@@H](CCC(=O)NCCCC[C@H](NC(=O)[C@](C)(CCCCN)NC(=O)[C@@H](NC(=O)[C@@H](NC(=O)[C@](C)(Cc1ccccc1)NC(=O)[C@H](C)NC(=O)[C@@H](NC(=O)[C@](C)(Cc1ccccc1)NC(=O)[C@H](CCC(=O)O)NC(=O)[C@](C)(CCCCN)NC(=O)[C@H](C)NC(=O)[C@H](C)NC(=O)[C@H](CCC(=O)O)NC(=O)CNC(=O)[C@H](CCC(=O)O)NC(=O)[C@H](CC(C)C)NC(=O)[C@](C)(Cc1ccccc1)NC(=O)[C@H](CO)NC(=O)[C@](C)(CO)NC(=O)[C@@H](NC(=O)[C@H](CC(=O)O)NC(=O)[C@H](CO)NC(=O)[C@@H](NC(=O)[C@](C)(Cc1ccccc1)NC(=O)[C@H](CO)NC(=O)CNC(=O)[C@H](CCC(=O)O)NC(=O)C(C)(C)NC(=O)[C@@H](N)Cc1c[nH]cn1)[C@@H](C)O)C(C)C)[C@@H](C)CC)C(C)C)C(C)C)C(=O)NCC(N)=O)C(=O)O
B3: SEQ ID NO 74 (peptide)
peptide: H[Aib]EGS[αMeF]TSDV[αMeS]S[αMeF]LEGEAA[αMeK]E[αMeF]IA[αMeF]K([γGlu-Palmitoyl])V[αMeK]GG-NH2
modifications: N-terminus assumed
SMILES: CCCCCCCCCCCCCCCC(=O)N[C@@H](CCC(=O)NCCCC[C@H](NC(=O)[C@](C)(Cc1ccccc1)NC(=O)[C@H](C)NC(=O)[C@@H](NC(=O)[C@](C)(Cc1ccccc1)NC(=O)[C@H](CCC(=O)O)NC(=O)[C@](C)(CCCCN)NC(=O)[C@H](C)NC(=O)[C@H](C)NC(=O)[C@H](CCC(=O)O)NC(=O)CNC(=O)[C@H](CCC(=O)O)NC(=O)[C@H](CC(C)C)NC(=O)[C@](C)(Cc1ccccc1)NC(=O)[C@H](CO)NC(=O)[C@](C)(CO)NC(=O)[C@@H](NC(=O)[C@H](CC(=O)O)NC(=O)[C@H](CO)NC(=O)[C@@H](NC(=O)[C@](C)(Cc1ccccc1)NC(=O)[C@H](CO)NC(=O)CNC(=O)[C@H](CCC(=O)O)NC(=O)C(C)(C)NC(=O)[C@@H](N)Cc1c[nH]cn1)[C@@H](C)O)C(C)C)[C@@H](C)CC)C(=O)N[C@H](C(=O)N[C@@](C)(CCCCN)C(=O)NCC(=O)NCC(N)=O)C(C)C)C(=O)O
B4: SEQ ID NO 76 (peptide)
peptide: H[Aib]EGS[αMeF]TSDV[αMeS]S[αMeF]LEGEAA[αMeK]E[αMeF]IK([γGlu-Palmitoyl])[αMeF]VV[αMeK]GG-NH2
modifications: N-terminus assumed
SMILES: CCCCCCCCCCCCCCCC(=O)N[C@@H](CCC(=O)NCCCC[C@H](NC(=O)[C@@H](NC(=O)[C@](C)(Cc1ccccc1)NC(=O)[C@H](CCC(=O)O)NC(=O)[C@](C)(CCCCN)NC(=O)[C@H](C)NC(=O)[C@H](C)NC(=O)[C@H](CCC(=O)O)NC(=O)CNC(=O)[C@H](CCC(=O)O)NC(=O)[C@H](CC(C)C)NC(=O)[C@](C)(Cc1ccccc1)NC(=O)[C@H](CO)NC(=O)[C@](C)(CO)NC(=O)[C@@H](NC(=O)[C@H](CC(=O)O)NC(=O)[C@H](CO)NC(=O)[C@@H](NC(=O)[C@](C)(Cc1ccccc1)NC(=O)[C@H](CO)NC(=O)CNC(=O)[C@H](CCC(=O)O)NC(=O)C(C)(C)NC(=O)[C@@H](N)Cc1c[nH]cn1)[C@@H](C)O)C(C)C)[C@@H](C)CC)C(=O)N[C@@](C)(Cc1ccccc1)C(=O)N[C@H](C(=O)N[C@H](C(=O)N[C@@](C)(CCCCN)C(=O)NCC(=O)NCC(N)=O)C(C)C)C(C)C)C(=O)O
B5: SEQ ID NO 75 (peptide)
peptide: H[Aib]EGS[αMeF]TSDV[αMeS]S[αMeF]LEGEAA[αMeK]E[αMeF]IAK([γGlu-Palmitoyl])VV[αMeK]GG-NH2
modifications: N-terminus assumed
SMILES: CCCCCCCCCCCCCCCC(=O)N[C@@H](CCC(=O)NCCCC[C@H](NC(=O)[C@H](C)NC(=O)[C@@H](NC(=O)[C@](C)(Cc1ccccc1)NC(=O)[C@H](CCC(=O)O)NC(=O)[C@](C)(CCCCN)NC(=O)[C@H](C)NC(=O)[C@H](C)NC(=O)[C@H](CCC(=O)O)NC(=O)CNC(=O)[C@H](CCC(=O)O)NC(=O)[C@H](CC(C)C)NC(=O)[C@](C)(Cc1ccccc1)NC(=O)[C@H](CO)NC(=O)[C@](C)(CO)NC(=O)[C@@H](NC(=O)[C@H](CC(=O)O)NC(=O)[C@H](CO)NC(=O)[C@@H](NC(=O)[C@](C)(Cc1ccccc1)NC(=O)[C@H](CO)NC(=O)CNC(=O)[C@H](CCC(=O)O)NC(=O)C(C)(C)NC(=O)[C@@H](N)Cc1c[nH]cn1)[C@@H](C)O)C(C)C)[C@@H](C)CC)C(=O)N[C@H](C(=O)N[C@H](C(=O)N[C@@](C)(CCCCN)C(=O)NCC(=O)NCC(N)=O)C(C)C)C(C)C)C(=O)O

Target: T1, GLP-1R (INS1e assay)
Assay: cell-based or functional assay

INS1e assay EC50 GLP-1 R n1 | INS1e assay EC50 GLP-1 R n2 | INS1e assay EC50 Mean pM GLP-1R | Binder
0.0231 nM | 0.0392 nM | 31 pM | H[Aib]EGS[αMeF]TSDVSK([PEG2′-PEG2′-PEG2′-Stearoyl])YLEGEAA[Aib]E[αMeF]IA[αMeF]VVEGG-NH2 [SEQ ID NO 63]
0.209 nM | 0.0837 nM | 146 pM | H[Aib]EGS[αMeF]TSDVSK([PEG2′-PEG2′-PEG2′-Stearoyl])YLEGEAAEE[αMeF]IA[αMeF]VVEGG-NH2 [SEQ ID NO 62]
4.26 nM | 8.07 nM | 6160 pM | B1
0.00557 nM | 0.0135 nM | 10 pM | H[Aib]EGS[αMeF]TSDVSK([PEG2′-PEG2′-PEG2′-Stearoyl])YLEGEAAKE[αMeF]IA[αMeF]VVEGG-NH2 [SEQ ID NO 61]
45.6 nM | 38.8 nM | 42200 pM | H[Aib]EGS[αMeF]TSDV[αMeS]S[αMeF]LEGEAAEEFIK([PEG2′-PEG2′-γGlu-Stearoyl])WVVEGG-NH2 [SEQ ID NO 66]
0.604 nM | 0.841 nM | 723 pM | B2
2.57 nM | 3.74 nM | 3160 pM | H[Aib]EGS[αMeF]TSDV[αMeS]S[αMeF]LEGEAAKEFIK([PEG2′-PEG2′-γGlu-Stearoyl])WVVEGG-NH2 [SEQ ID NO 65]
14.3 nM | 12.1 nM | 13200 pM | H[Aib]EGS[αMeF]TSDVSK([PEG2′-PEG2′-γGlu-Stearoyl])YLEGEAA[αMeK]E[αMeF]IA[αMeF]VVEGG-NH2 [SEQ ID NO 60]
19.2 nM | 25 nM | 22100 pM | H[Aib]EGS[αMeF]TSDV[αMeS]S[αMeF]LEGEAAAEFIK([PEG2′-PEG2′-γGlu-Stearoyl])WVVEGG-NH2 [SEQ ID NO 69]
0.0774 nM | 0.127 nM | 102 pM | B3
2.69 nM | 4.87 nM | 3780 pM | H[Aib]EGS[αMeF]TSDV[αMeS]S[αMeF]LEGEAA[αMeK]EFIK([PEG2′-PEG2′-γGlu-Stearoyl])WVVEGG-NH2 [SEQ ID NO 68]
6.15 nM | 18.1 nM | 12100 pM | H[Aib]EGS[αMeF]TSDV[αMeS]S[αMeF]LEGEAA[Aib]EFIK([PEG2′-PEG2′-γGlu-Stearoyl])WVVEGG-NH2 [SEQ ID NO 67]
0.326 nM | 0.531 nM | 429 pM | B4
0.0068 nM | 0.0121 nM | 9 pM | H[Aib]EGS[αMeF]TSDVSK([PEG2′-PEG2′-PEG2′-Stearoyl])YLEGEAA[αMeK]E[αMeF]IA[αMeF]VVEGG-NH2 [SEQ ID NO 64]
0.0497 nM | 0.063 nM | 56 pM | B5
